For the assay, the target named is PF-4 in cynomolgus monkey plasma (cynomolgus monkey). Briefly: aligned sandwich ELISA, cyno plasma. (ELISA stands for enzyme-linked immunosorbent assay.)

Regarding “monoclonal anti-HPF4 antibody (Abcam cat. no.: ab49735)”, the AUC Ratio vs anti-HPF4 came to 1 and the anti-HPF4 AUC mean came to 2.9.
